Test results published in patent US20240368295A1 (SUTRO BIOPHARMA, published 2024).

T1: BCMA on BCMA-positive NCI-H929, ARP-1 and U266B1 cells (human, UniProt Q02223 1-184)
T1 construct: they are human cell lines; also called B-cell maturation antigen; TNFRSF17
T1 sequence: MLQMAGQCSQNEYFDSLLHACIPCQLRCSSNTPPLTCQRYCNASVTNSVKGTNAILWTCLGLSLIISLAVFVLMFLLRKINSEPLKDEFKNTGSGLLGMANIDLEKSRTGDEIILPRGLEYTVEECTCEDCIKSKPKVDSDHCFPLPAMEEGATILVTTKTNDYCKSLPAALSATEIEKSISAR


Key:
[1] = target: cynomolgus BCMA on 293T-cynoBCMA cells (cynomolgus, UniProt Q02223 1-184 (human entry)); experiment: FACS, 293T-cynoBCMA cells
Experimental: (§1) Variants for which sufficient protein was purified in secondary screening were tested in a fluorescence-activated cell sorting (FACS) cell-binding assay. […] 6-12 point dilutions of anti-BCMA variants starting from concentrations of about 100-200 nM antibody were dispensed into each well using a BioMekFX (Beckman Coulter). Cells were then incubated on ice for 1 hr, washed with FACS buffer and incubated for 1 hr on ice with […] FACS buffer containing […] Alexa647-conjugated Goat Anti-Human IgG dispensed using BioMekFX (Beckman Coulter). Cells were then washed 2× with FACS buffer and fixed for 10 minutes in […] PBS with 2% PFA prior to fluorescence detection. Samples were acquired using a Beckton Dickinson LSRII FACS. Geometric Mean Fluorescence Intensity of BCMA antibody binding was analyzed using FlowJo® software (Trec Star, Inc.).

[2] = target: T1, BCMA on BCMA-positive NCI-H929, ARP-1 …; experiment: FACS, NCI-H929 cells
Experimental: as §1

[3] = target: T1, BCMA on BCMA-positive NCI-H929, ARP-1 …; experiment: cell-based or functional assay

cynomolgus BCMA on 293T-cynoBCMA cells, sequence (Q02223 other isoform, or with tags, fused parts or gaps): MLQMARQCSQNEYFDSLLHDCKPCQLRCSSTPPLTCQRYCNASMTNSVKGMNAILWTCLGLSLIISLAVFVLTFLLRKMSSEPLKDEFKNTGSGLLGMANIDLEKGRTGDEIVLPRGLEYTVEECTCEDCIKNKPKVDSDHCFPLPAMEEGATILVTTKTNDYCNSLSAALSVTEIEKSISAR

| Binder | Bmax (MFI) [1] | Bmax (MFI) [2] | U266B1, SC225-conjugated 2° antibody cell killing, EC50 [3] | U266B1, SC225-conjugated 2° antibody cell killing, Span [3] |
| --- | --- | --- | --- | --- |
| SRP2290-A02 (antibody, IgG1, V domains shown, IgG1 with trastuzumab light chain, His/FLAG-tagged, cell-free expressed; also called Antibody 22) VH: EVQLVESGGGLVQPGGSLRLSCAASGFNISTRWIHWVRQAPGKGLEWVGVITPSAGYTHYADSVKGRFTISAGTSKNTAYLQMNSLRAEDTAVYYCARDLGSRYWVGVFDYWGQGTLVTVSS VL: not shown | 70300 MFI | 33600 MFI | 1.6 nM | 70% |
| SRP2290-D02 (antibody, IgG1, V domains shown, IgG1 with trastuzumab light chain, His/FLAG-tagged, cell-free expressed; also called Antibody 18) VH: EVQLVESGGGLVQPGGSLRLSCAASGFNISSYWIHWVRQAPGKGLEWMGVITPAAGYTYYADSVKGRFTISADTSKNTAYLQMNSLRAEDTAVYYCARDLGHRYWVGVFDYWGQGTLVTVSS VL: not shown | 75800 MFI | 33600 MFI | 1.4 nM | 60% |
| SRP2290-D05 (antibody, IgG1, V domains shown, IgG1 with trastuzumab light chain, His/FLAG-tagged, cell-free expressed; also called Antibody 20) VH: EVQLVESGGGLVQPGGSLRLSCAASGFNIASRWIHWVRQAPGKGLEWVGVITPSAGYTYYADSVKGRFTISADTSKNTAYLQMNSLRAEDTAVYYCARDLGYGYWVGFSDYWGQGTLVTVSS VL: not shown | 57600 MFI | 21800 MFI | 0.96 nM | 50% |
| SRP2290-C08 (antibody, IgG1, V domains shown, IgG1 with trastuzumab light chain, His/FLAG-tagged, cell-free expressed; also called Antibody 21) VH: EVQLVESGGGLVQPGGSLRLSCAASGFNIQPYWIHWVRQAPGKGLEWVGVITPPSGYTYYADSVKGRFTISADTSKNTAYLQMNSLRAEDTAVYYCARDWGVGYWVGFSDYWGQGTLVTVSS VL: not shown | 71000 MFI | 37800 MFI | 1.1 nM | 73% |
| SRP2288-A03 (antibody, IgG1, V domains shown, IgG1 with trastuzumab light chain, His/FLAG-tagged, cell-free expressed; also called Antibody 15) VH: EVQLVESGGGLVQPGGSLRLSCAASGFNINNSWIHWVRQAPGKGLEWVGWIYPYIGFTEYADSVKGRFTISADTSKNTAYLQMNSLRAEDTAVYYCARDYDLRYLTGVLDYWGQGTLVTVSS VL: not shown | 46800 MFI | 16300 MFI | 2.3 nM | 42% |
| SRP2291-D07 (antibody, IgG1, V domains shown, IgG1 with trastuzumab light chain, His/FLAG-tagged, cell-free expressed; also called Antibody 26) VH: EVQLVESGGGLVQPGGSLRLSCAASGFNIKDTYIHWVRQAPGKGLEWVGVISPYDGYTEYADSVKGRFTISADTSKNTAYLQMNSLRAEDTAVYYCAHDFYDRYSTYVLDYWGQGTLVTVSS VL: not shown | 67900 MFI | 28700 MFI | 16 nM | 2% |
| SRP2291-A01 (antibody, IgG1, V domains shown, IgG1 with trastuzumab light chain, His/FLAG-tagged, cell-free expressed; also called Antibody 29) VH: EVQLVESGGGLVQPGGSLRLSCAASGFNIDPYTIHWARQAPGKGLEWVAHISPYDGYTDYADSVKGRFTISADTSKNTAYLQMNSLRAEDTAVYYCARDFYDRYSTYVLDYWGQGTLVTVSS VL: not shown | 67200 MFI | 32500 MFI | 58 nM | 1.1% |
| SRP2291-F10 (antibody, IgG1, V domains shown, IgG1 with trastuzumab light chain, His/FLAG-tagged, cell-free expressed; also called Antibody 27) VH: EVQLVESGGGLVQPGGSLRLSCAASGFNIDPYTIHWVRQAPGKGLEWVGWISPYDGYTEYADSVKGRFTISADTSKNTAYLQMNSLRAEDTAVYYCARDYYDRYSTYVLDYWGRGTLVTVSS VL: not shown | 66500 MFI | 33800 MFI | 46 nM | 1% |
| SRP2291-G05 (antibody, IgG1, V domains shown, IgG1 with trastuzumab light chain, His/FLAG-tagged, cell-free expressed; also called Antibody 24) VH: EVQLVESGGGLVQPGGSLRLSCAASGFNIAAYTIHWVRQAPGKGLEWVGWISPYGGYTEYADSVKGRFTISADTSKNTAYLQMNSLRAEDTAVYYCARDFHDRYATFVLDYWGQGTLVTVSS VL: not shown | 62700 MFI | 23200 MFI | 20 nM | 0.8% |
